These results are taken from the supplement of paper PMC7877785.

± gives the uncertainty stated by the source.

A short description of the data set: self-splicing fitness, log relative to wild type (ln ratio); higher = more splicing; Tetrahymena group I intron in knt gene, E. coli kanamycin selection, DiMSum; sequences stand for … in CUCUCU…GGAGGGAAAAGUUAUCAGGCAUGCACCUGGUAGCUAGUCUUUAAACCAAUAGAUUGCAUCGGUUUAAAAGGCAAGACCGUCAAAUUGCGGGAAAGGGGUCAACAGCCGUUCAGUACCAAGUCUCAGGGGAAACUUUGAGAUGGCCUUGCAAAGGGUAUGGUAAUAAGCUGACGGACAUGGUCCUAACCACGCAGCCAAGUCCUAAGUCAACAGAUCUUCUGUUGAUAUGGAUGCAGUUCACAGACUAAAUGUCGGUCGGGGAAGAUGUAUUCUUCUCAUAAGAUAUAGUCGGACCUCUCCUUAAUGGGAGCUAGCGGAUGAAGUGAUGCAACACUGGAGCCGCUGGGAACUAAUUUGUAUGCGAAAGUAUAUUGAUUAGUUUUGGAGUACUCGUGGUCG
The method, boiled down: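 A randomised library covering all eight P1ex-region intron nucleotides was built with the intron in the knt kanamycin-resistance gene on pET-22b(+) and held in E. coli BL21(DE3). Cells were grown overnight at 37°C or 30°C on LB agar, with or without 25 μg/mL kanamycin, plus 100 μg/mL carbenicillin, 50 μM IPTG and 0.2% rhamnose, and pooled colonies were amplicon-sequenced on an Illumina HiSeq 2500. DiMSum fitness is the error-weighted combination of wild-type-normalised replicate fold changes, kanamycin versus none.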

In the case of GUUCAGCAAUAUUACGCAAU, the “self-splicing fitness (ln)” value is -1.08 ± 0.16 (30 °C) and -0.106 ± 0.19 (37 °C).

On to GUUCAGCAAUAUUACGCACC, for which the “self-splicing fitness (ln)” value runs as follows: (30 °C) -1.33 ± 0.13; (37 °C) -0.136 ± 0.21.

Regarding GUUCAGCAAUAUUACGCUCC, the “self-splicing fitness (ln)” value by setting is: (30 °C) -0.282 ± 0.15; (37 °C) -0.544 ± 0.23.

Consider GUUCAGCAAUAUUACGCUUG, for which the “self-splicing fitness (ln)” value is -1.54 ± 0.081 (30 °C) and -0.171 ± 0.089 (37 °C).

In the case of GUUCAGCAAUAUUACGGAAU, the “self-splicing fitness (ln)” value by setting is: (30 °C) -2.45 ± 0.19; (37 °C) -2.46 ± 0.27.

As for GUUCAGCAAUAUUACGGACA, the “self-splicing fitness (ln)” value was -1.59 ± 0.18 (30 °C) and -1.02 ± 0.16 (37 °C).

As to GUUCAGCAAUAUUACGGCUU, the “self-splicing fitness (ln)” value is, setting by setting: (30 °C) -0.546 ± 0.086; (37 °C) 0.571 ± 0.12.

Turning to GUUCAGCAAUAUUACGGGAG, the “self-splicing fitness (ln)” value (30 °C) was -0.317 ± 0.077 and the “self-splicing fitness (ln)” value (37 °C) is -0.683 ± 0.095.

For GUUCAGCAAUAUUACGGGCU, under “37 °C”, the “self-splicing fitness (ln)” value was -1.56 ± 0.28.

GUUCAGCAAUAUUACGGGGU: the “self-splicing fitness (ln)” value is -3.36 ± 0.17 (30 °C) and -1.73 ± 0.16 (37 °C).

On to GUUCAGCAAUAUUACGGGUA, for which the “self-splicing fitness (ln)” value was -2.23 ± 0.12 (30 °C) and -0.474 ± 0.097 (37 °C).

Regarding GUUCAGCAAUAUUACGGGUG, the “self-splicing fitness (ln)” value was -1.49 ± 0.09 (30 °C) and -0.763 ± 0.089 (37 °C).

Consider GUUCAGCAAUAUUACGGUCU, for which the “self-splicing fitness (ln)” value reads like this: (30 °C) -0.136 ± 0.047; (37 °C) 0.327 ± 0.063.

Regarding GUUCAGCAAUAUUACGUAGA, the “self-splicing fitness (ln)” value was -0.546 ± 0.1 (30 °C) and -0.394 ± 0.1 (37 °C).

For the sequence GUUCAGCAAUAUUACGUUAU, the “self-splicing fitness (ln)” value runs as follows: (30 °C) -0.292 ± 0.077; (37 °C) -0.207 ± 0.099.

GUUCAGCAAUAUUACGUUCG: the “self-splicing fitness (ln)” value reads like this: (30 °C) -0.684 ± 0.067; (37 °C) 0.137 ± 0.1.

Take GUUGAGCAAUAUUACGAAGG: the “self-splicing fitness (ln)” value is, setting by setting: (30 °C) -3.35 ± 0.41; (37 °C) -2.68 ± 0.4.

For the sequence GUUGAGCAAUAUUACGAGGA, the “self-splicing fitness (ln)” value (30 °C) was -2.48 ± 0.45.

In the case of GUUGAGCAAUAUUACGAUGA, under “37 °C”, the “self-splicing fitness (ln)” value is -2.27 ± 0.42.

For the sequence GUUGAGCAAUAUUACGCACG, the “self-splicing fitness (ln)” value (30 °C) was -3.13 ± 0.43.

In the case of GUUGAGCAAUAUUACGCCGU, the “self-splicing fitness (ln)” value is, setting by setting: (30 °C) -2.98 ± 0.23; (37 °C) -0.768 ± 0.16.

On to GUUGAGCAAUAUUACGCGAA, for which the “self-splicing fitness (ln)” value runs as follows: (30 °C) -3.43 ± 0.46; (37 °C) -1.9 ± 0.43.

With GUUGAGCAAUAUUACGCGUC, the “self-splicing fitness (ln)” value is, setting by setting: (30 °C) -1.59 ± 0.27; (37 °C) -0.951 ± 0.34.

For the sequence GUUGAGCAAUAUUACGCUAC, where the note is “30 °C”, the “self-splicing fitness (ln)” value is -1.28 ± 0.49.

For GUUGAGCAAUAUUACGCUAU, the “self-splicing fitness (ln)” value is -2.06 ± 0.35 (30 °C) and -2.66 ± 0.46 (37 °C).

With GUUGAGCAAUAUUACGCUUG, the “self-splicing fitness (ln)” value is -2.79 ± 0.22 (30 °C) and -2.15 ± 0.27 (37 °C).

For GUUGAGCAAUAUUACGGCCU, the “self-splicing fitness (ln)” value is -2.03 ± 0.18 (30 °C) and -0.897 ± 0.2 (37 °C).

On to GUUGAGCAAUAUUACGGGCG, for which the “self-splicing fitness (ln)” value is, setting by setting: (30 °C) -2.38 ± 0.18; (37 °C) -1.58 ± 0.25.

As for GUUGAGCAAUAUUACGGUAA, the “self-splicing fitness (ln)” value by setting is: (30 °C) -2.51 ± 0.27; (37 °C) -2.49 ± 0.35.

In the case of GUUGAGCAAUAUUACGGUAC, the “self-splicing fitness (ln)” value (30 °C) is -3.45 ± 0.34 and the “self-splicing fitness (ln)” value (37 °C) is -1.79 ± 0.38.

Take GUUGAGCAAUAUUACGUACC: the “self-splicing fitness (ln)” value (30 °C) is -1.75 ± 0.36.

GUUGAGCAAUAUUACGUCGC: the “self-splicing fitness (ln)” value (30 °C) was -2.1 ± 0.35 and the “self-splicing fitness (ln)” value (37 °C) is -1.17 ± 0.29.

As to GUUGAGCAAUAUUACGUGGC, the “self-splicing fitness (ln)” value is -3.09 ± 0.25 (30 °C) and -2.17 ± 0.28 (37 °C).

Consider GUUUAGCAAUAUUACGAGUG, for which the “self-splicing fitness (ln)” value runs as follows: (30 °C) -3.74 ± 0.17; (37 °C) -0.634 ± 0.11.

With GUUUAGCAAUAUUACGAGUU, the “self-splicing fitness (ln)” value (30 °C) was -4.25 ± 0.29 and the “self-splicing fitness (ln)” value (37 °C) was -2.3 ± 0.14.

In the case of GUUUAGCAAUAUUACGAUGU, the “self-splicing fitness (ln)” value by setting is: (30 °C) -1.16 ± 0.11; (37 °C) -0.261 ± 0.14.

In the case of GUUUAGCAAUAUUACGAUUU, the “self-splicing fitness (ln)” value is, setting by setting: (30 °C) -0.709 ± 0.068; (37 °C) 0.111 ± 0.096.

For GUUUAGCAAUAUUACGCAUU, the “self-splicing fitness (ln)” value reads like this: (30 °C) -1.53 ± 0.11; (37 °C) -0.487 ± 0.12.

GUUUAGCAAUAUUACGCCGU: the “self-splicing fitness (ln)” value runs as follows: (30 °C) -2.03 ± 0.13; (37 °C) -0.93 ± 0.14.

As to GUUUAGCAAUAUUACGCUGA, the “self-splicing fitness (ln)” value was -3.66 ± 0.33 (30 °C) and -1.6 ± 0.23 (37 °C).

In the case of GUUUAGCAAUAUUACGCUUC, for the setting “37 °C”, the “self-splicing fitness (ln)” value was -1.36 ± 0.43.

In the case of GUUUAGCAAUAUUACGCUUG, the “self-splicing fitness (ln)” value is -1.18 ± 0.099 (30 °C) and 0.632 ± 0.15 (37 °C).

Regarding GUUUAGCAAUAUUACGGAGU, the “self-splicing fitness (ln)” value by setting is: (30 °C) -2.3 ± 0.13; (37 °C) -1.63 ± 0.12.

As for GUUUAGCAAUAUUACGGCGA, the “self-splicing fitness (ln)” value runs as follows: (30 °C) -0.198 ± 0.23; (37 °C) -0.0729 ± 0.19.

As for GUUUAGCAAUAUUACGUCAA, the “self-splicing fitness (ln)” value was -2.3 ± 0.18 (30 °C) and -0.778 ± 0.16 (37 °C).

Consider GUUUAGCAAUAUUACGUCAU, for which the “self-splicing fitness (ln)” value runs as follows: (30 °C) -0.998 ± 0.069; (37 °C) -0.817 ± 0.099.

In the case of GUUUAGCAAUAUUACGUCCG, the “self-splicing fitness (ln)” value by setting is: (30 °C) -2.86 ± 0.2; (37 °C) -1.89 ± 0.29.

Regarding GUUUAGCAAUAUUACGUCGA, the “self-splicing fitness (ln)” value (30 °C) was -1.43 ± 0.28 and the “self-splicing fitness (ln)” value (37 °C) was -0.62 ± 0.28.

For GUUUAGCAAUAUUACGUCUC, the “self-splicing fitness (ln)” value is, setting by setting: (30 °C) -0.593 ± 0.19; (37 °C) 0.43 ± 0.24.

On to GUUUAGCAAUAUUACGUGGC, for which the “self-splicing fitness (ln)” value is -0.884 ± 0.32 (30 °C) and -1.46 ± 0.33 (37 °C).

In the case of GUUUAGCAAUAUUACGUGUG, the “self-splicing fitness (ln)” value is, setting by setting: (30 °C) -2.08 ± 0.11; (37 °C) -1.36 ± 0.11.

On to UAAAAGCAAUAUUACGAAAU, for which the “self-splicing fitness (ln)” value reads like this: (30 °C) -3.04 ± 0.16; (37 °C) -2.45 ± 0.21.

For UAAAAGCAAUAUUACGAACU, the “self-splicing fitness (ln)” value was -0.332 ± 0.23 (30 °C) and -0.647 ± 0.2 (37 °C).

For UAAAAGCAAUAUUACGACAU, the “self-splicing fitness (ln)” value is, setting by setting: (30 °C) -1.09 ± 0.012; (37 °C) -0.402 ± 0.032.

As for UAAAAGCAAUAUUACGACCA, the “self-splicing fitness (ln)” value is, setting by setting: (30 °C) -0.143 ± 0.092; (37 °C) 0.711 ± 0.13.

Consider UAAAAGCAAUAUUACGAGAC, for which the “self-splicing fitness (ln)” value is, setting by setting: (30 °C) -2.39 ± 0.28; (37 °C) -2.29 ± 0.26.

Consider UAAAAGCAAUAUUACGAGGU, for which the “self-splicing fitness (ln)” value reads like this: (30 °C) -4.31 ± 0.3; (37 °C) -1.59 ± 0.17.

Take UAAAAGCAAUAUUACGAUAG: the “self-splicing fitness (ln)” value is -0.934 ± 0.078 (30 °C) and -0.765 ± 0.088 (37 °C).

As to UAAAAGCAAUAUUACGAUUA, the “self-splicing fitness (ln)” value is 0.154 ± 0.073 (30 °C) and 0.0591 ± 0.088 (37 °C).

As to UAAAAGCAAUAUUACGCAGU, the “self-splicing fitness (ln)” value is -2.66 ± 0.16 (30 °C) and -1.3 ± 0.13 (37 °C).

Turning to UAAAAGCAAUAUUACGCGAC, the “self-splicing fitness (ln)” value (30 °C) is -3.73 ± 0.33 and the “self-splicing fitness (ln)” value (37 °C) is -2.64 ± 0.24.

As for UAAAAGCAAUAUUACGCGCA, the “self-splicing fitness (ln)” value runs as follows: (30 °C) -0.512 ± 0.084; (37 °C) 0.752 ± 0.13.
